First the molecules themselves.
B1: LINE1-full (parent)
chain: UACGUAGGUGGUUUUCCCCUGAUAGUGCUAAGGGGGCCUGGAAGUUUGGACUGGGCAGAGCUCAACACAGCGUGGCAAAGUGGCUGUGGCUAGACUGCCUCUCUGGAUUCCUCGUCACUCAGCAGGGCAUCUCUGAGAGAAAUGCC

Variants of B1 are the subject of the data set. Nature of the data set: self-cleavage, relative activity (ratio to wild type); higher = more cleavage; in vitro, sequencing; the parent is a self-cleaving ribozyme.
Regarding UACGUAGGUGGUUUUCCCCUGAUAGUGCUAAGGGGGCCUGGAAGUUUGGACUGGGCAGAGCUCAACACAGCGAGGCAAAGUGGCUGUGGCUAGACUGCCCCUCUGGAUUCCUCGUCACUCAGCAGGGCAUCUCUGAGAGAAAUGCC, the self-cleavage was 2.71.

UACGUAGGUGGUUUUCCCCUGAUAGUGCUAAGGGGGCCUGGAAGUUUGGACUGGGCAGAGCUCAACACAGCGAGGCAAAGUGGCUGUGGCUAGACUGCCACUCUGGAUUCCUCGUCACUCAGCAGGGCAUCUCUGAGAGAAAUGCC: the self-cleavage came to 0.97.

Consider UACGUAGGUGGUUUUCCCCUGAUAGUGCUAAGGGGGCCUGGAAGUUUGGACUGGGCAGAGCUCAACACAGCGAGGCAAAGUGGCUGUGGCUAGACUGCCUCUCUGGAGUCCUCGUCACUCAGCAGGGCAUCUCUGAGAGAAAUGCC, for which the self-cleavage turned out to be 0.44.

Consider UACGUAGGUGGUUUUCCCCUGAUAGUGCUAAGGGGGCCUGGAAGUUUGGACUGGGCAGAGCUCAACACAGCGAGGCAAAGUGGCUGUGGCUAGACUGCCUCUCUGGACUCCUCGUCACUCAGCAGGGCAUCUCUGAGAGAAAUGCC, for which the self-cleavage amounted to 2.23.

With UACGUAGGUGGUUUUCCCCUGAUAGUGCUAAGGGGGCCUGGAAGUUUGGACUGGGCAGAGCUCAACACAGCGCGGCAAAGUGGCUGUGGCUAGACUGCCUCUCUGGAUUCCUCGUCACUCCGCAGGGCAUCUCUGAGAGAAAUGCC, the self-cleavage worked out at 0.54.

As for UACGUAGGUGGUUUUCCCCUGAUAGUGCUAAGGGGGCCUGGAAGUUUGGACUGGGCAGAGCUCAACACAGCGCGGCAAAGUGGCUGUGGCUAGACUGCCUCUCUGGAUUCCUCGUCACUCGGCAGGGCAUCUCUGAGAGAAAUGCC, the self-cleavage was found to be 2.05.

Take UACGUAGGUGGUUUUCCCCUGAUAGUGCUAAGGGGGCCUGGAAGUUUGGACUGGGCAGAGCUCAACACAGCGCGGCAAAGUGGCUGUGGCUAGACUGUCUCUCUGGAUUCCUCGUCACUCAGCAGGGCAUCUCUGAGAGAAAUGCC: the self-cleavage worked out at 0.36.

For the variant UACGUAGGUGGUUUUCCCCUGAUAGUGCUAAGGGGGCCUGGAAGUUUGGACUGGGCAGAGCUCAACACAGCGCGGCAAAGUGGCUGUGGCUAGACUGCCUCUCUGGAUUCCUCGUCACUCAGCAGGGAAUCUCUGAGAGAAAUGCC, the self-cleavage turned out to be 0.94.

For the variant UACGUAGGUGGUUUUCCCCUGAUAGUGCUAAGGGGGCCUGGAAGUUUGGACUGGGCAGAGCUCAACACAGCGCGGCAAAGUGGCUGUGGCUAGACUGCCUCUCUGGAUUCCUCGUCACUAAGCAGGGCAUCUCUGAGAGAAAUGCC, the self-cleavage stood at 1.97.

As to UACGUAGGUGGUUUUCCCCUGAUAGUGCUAAGGGGGCCUGGAAGUUUGGACUGGGCAGAGCUCAACACAGCGCGGCAAAGUGGCUGUGGCUGGACUGCCUCUCUGGAUUCCUCGUCACUCAGCAGGGCAUCUCUGAGAGAAAUGCC, the self-cleavage came to 0.16.

For UACGUAGGUGGUUUUCCCCUGAUAGUGCUAAGGGGGCCUGGAAGUUUGGACUGGGCAGAGCUCAACACAGCGAGGCAAAGUGGCUGUGGCUAGACUGCCUCUCUGGAUUCCUCGACACUCAGCAGGGCAUCUCUGAGAGAAAUGCC, the self-cleavage worked out at 1.66.

On to UACGUAGGUGGUUUUCCCCUGAUAGUGCUAAGGGGGCCUGGAAGUUUGGACUGGGCAGAGCUCAACACAGCGCGGCAAAGUGGCUGUGGCUAGACUGCCUCUCUGGAUUCCUCGUCACUCAGCAGGGCUUCUCUGAGAGAAAUGCC, for which the self-cleavage was 2.11.

In the case of UACGUAGGUGGUUUUCCCCUGAUAGUGCUAAGGGGGCCUGGAAGUUUGGACUGGGCAGAGCUCAACACAGCGCGGCACAGUGGCUGUGGCUAGACUGCCUCUCUGGAUUCCUCGUCACUCAGCAGGGCAUCUCUGAGAGAAAUGCC, the self-cleavage worked out at 0.77.

With UACGUAGGUGGUUUUCCCCUGAUAGUGCUAAGGGGGCCUGGAAGUUUGGACUGGGCAGAGCUCAACACAGCGCGGCAGAGUGGCUGUGGCUAGACUGCCUCUCUGGAUUCCUCGUCACUCAGCAGGGCAUCUCUGAGAGAAAUGCC, the self-cleavage was found to be 1.12.

With UACGUAGGUGGUUUUCCCCUGAUAGUGCUAAGGGGGCCUGGAAGUUUGGACUGGGCAGAGCUCAACACAGCGCGGCAAAGUGGCUGUGGCUAGACUGCCUCUCUGGAUUCCUCGUCAAUCAGCAGGGCAUCUCUGAGAGAAAUGCC, the self-cleavage came out at 1.46.

Take UACGUAGGUGGUUUUCCCCUGAUAGUGCUAAGGGGGCCUGGAAGUUUGGACUGGGCAGAGCUCAACACAGCGCGGCAAAGUGGCUGUGGCUAGACUGCCUCUCUGGAUUCCUCGUCUCUCAGCAGGGCAUCUCUGAGAGAAAUGCC: the self-cleavage came out at 2.34.

Take UACGUAGGUGGUUUUCCCCUGAUAGUGCUAAGGGGGCCUGGAAGUUUGGACUGGGCAGAGCUCAACACAGCGCGGCAAAGUGGCUGUGGCUAGACUGCCUCUCUGGAUUCCUCGUCGCUCAGCAGGGCAUCUCUGAGAGAAAUGCC: the self-cleavage worked out at 1.23.

Regarding UACGUAGGUGGUUUUCCCCUGAUAGUGCUAAGGGGGCCUGGAAGUUUGGACUGGGCAGAGCUCAACACAGCGCGGCAAAGUGGCUGUGGCUAGACUGCCUCUCUGGAUUCCUCGUCACUCAGCAGGGCAUCUCUGGGAGAAAUGCC, the self-cleavage came out at 1.64.

UACGUAGGUGGUUUUCCCCUGAUAGUGCUAAGGGGGCCUGGAAGUUUGGACUGGGCAGAGCUCAACACAGCGCGGCAAAGUGGCUGUGGCUAGACUGCCUCUCUGGAUUCCUCGUCACUCAGCAGGGCAUCUCUGAGGGAAAUGCC: the self-cleavage is 2.26.

UACGUAGGUGGUUUUCCCCUGAUAGUGCUAAGGGGGCCUGGAAGUUUGGACUGGGCAGAGCUCAACACAGCGAGGCAAAGUGGCUGUGGCUAGACUGCCUCUCUGGAUUCCUCGUCACUCAGCAGGGCAUCUCUGAGAGAAACGCC: the self-cleavage is 1.4.

For the variant UACGUAGGUGGUUUUCCCCUGAUAGUGCUAAGGGGGCCUGGAAGUUUGGACUGGGCAGAGCUCAACACAGCGAGGCAAAGUGGCUGUGGCUAGACUGCCUCUCUGGAUUCCUCGUCACUCAGCAGGGCAUCUCUGAGAGAAAAGCC, the self-cleavage is 1.75.

With UACGUAGGUGGUUUUCCCCUGAUAGUGCUAAGGGGGCCUGGAAGUUUGGACUGGGCAGAGCUCAACACAGCGCGGCAAAGUGGCUGUGGCUAGUCUGCCUCUCUGGAUUCCUCGUCACUCAGCAGGGCAUCUCUGAGAGAAAUGCC, the self-cleavage amounted to 0.69.

Take UACGUAGGUGGUUUUCCCCUGAUAGUGCUAAGGGGGCCUGGAAGUUUGGACUGGGCAGAGCUCAACACAGCGCGGCAAAGUGGCUGUGGCUAGCCUGCCUCUCUGGAUUCCUCGUCACUCAGCAGGGCAUCUCUGAGAGAAAUGCC: the self-cleavage amounted to 0.32.

UACGUAGGUGGUUUUCCCCUGAUAGUGCUAAGGGGGCCUGGAAGUUUGGACUGGGCAGAGCUCAACACAGCGAGGCAAAGUGGCUGUGGCUAGACCGCCUCUCUGGAUUCCUCGUCACUCAGCAGGGCAUCUCUGAGAGAAAUGCC: the self-cleavage is 0.1.

For the variant UACGUAGGUGGUUUUCCCCUGAUAGUGCUAAGGGGGCCUGGAAGUUUGGACUGGGCAGAGCUCAACACAGCGAGGCAAAGUGGCUGUGGCUAGACAGCCUCUCUGGAUUCCUCGUCACUCAGCAGGGCAUCUCUGAGAGAAAUGCC, the self-cleavage was 0.05.

With UACGUAGGUGGUUUUCCCCUGAUAGUGCUAAGGGGGCCUGGAAGUUUGGACUGGGCAGAGCUCAACACAGCGAGGCAAAGUGGCUGUGGCUAGACUGCCUCUCUGGAUCCCUCGUCACUCAGCAGGGCAUCUCUGAGAGAAAUGCC, the self-cleavage was determined as 1.05.

UACGUAGGUGGUUUUCCCCUGAUAGUGCUAAGGGGGCCUGGAAGUUUGGACUGGGCAGAGCUCAACACAGCGCGGCAAAGUGGCUGUGGUUAGACUGCCUCUCUGGAUUCCUCGUCACUCAGCAGGGCAUCUCUGAGAGAAAUGCC: the self-cleavage was determined as 0.01.

In the case of UACGUAGGUGGUUUUCCCCUGAUAGUGCUAAGGGGGCCUGGAAGUUUGGACUGGGCAGAGCUCAACACAGCGCGGCAAAGUGGCUGUGGGUAGACUGCCUCUCUGGAUUCCUCGUCACUCAGCAGGGCAUCUCUGAGAGAAAUGCC, the self-cleavage came out at 0.01.

As for UACGUAGGUGGUUUUCCCCUGAUAGUGCUAAGGGGGCCUGGAAGUUUGGACUGGGCAGAGCUCAACACAGCGAGGCAAAGUGGCUGUGGCUAGACUGCCUCUCUGGAUUCCUCGUCACUCAGCAGGGCAUCCCUGAGAGAAAUGCC, the self-cleavage came out at 1.53.

Turning to UACGUAGGUGGUUUUCCCCUGAUAGUGCUAAGGGGGCCUGGAAGUUUGGACUGGGCAGAGCUCAACACAGCGAGGCAAAGUGGCUGUGGCUAGACUGCCUCUCUGGAUUCCUCGUCACUCAGCAGGGCAUCACUGAGAGAAAUGCC, the self-cleavage stood at 1.73.

Turning to UACGUAGGUGGUUUUCCCCUGAUAGUGCUAAGGGGGCCUGGAAGUUUGGACUGGGCAGAGCUCAACACAGCGCGGCAAUGUGGCUGUGGCUAGACUGCCUCUCUGGAUUCCUCGUCACUCAGCAGGGCAUCUCUGAGAGAAAUGCC, the self-cleavage came out at 1.65.

As for UACGUAGGUGGUUUUCCCCUGAUAGUGCUAAGGGGGCCUGGAAGUUUGGACUGGGCAGAGCUCAACACAGCGCGGCAAAGUGGCUGUGGCUAGACUGCUUCUCUGGAUUCCUCGUCACUCAGCAGGGCAUCUCUGAGAGAAAUGCC, the self-cleavage came to 1.06.

UACGUAGGUGGUUUUCCCCUGAUAGUGCUAAGGGGGCCUGGAAGUUUGGACUGGGCAGAGCUCAACACAGCGCGGCAAAGUGGCUGUGGCUAGACUGCCUCUCUGGAUUCCUCGUCACUCAGUAGGGCAUCUCUGAGAGAAAUGCC: the self-cleavage is 1.05.

As for UACGUAGGUGGUUUUCCCCUGAUAGUGCUAAGGGGGCCUGGAAGUUUGGACUGGGCAGAGCUCAACACAGCGCGGCAAAGUGGCUGUGGCUAGACUGCCUCUCUGGGUUCCUCGUCACUCAGCAGGGCAUCUCUGAGAGAAAUGCC, the self-cleavage came to 2.23.

UACGUAGGUGGUUUUCCCCUGAUAGUGCUAAGGGGGCCUGGAAGUUUGGACUGGGCAGAGCUCAACACAGCGAGGCAAAGUGGCUGUGGCUAGACUGCCUCUCUGGAUUCCUCGUCACUCAGCAGGGCAUCUCGGAGAGAAAUGCC: the self-cleavage was determined as 0.45.

For UACGUAGGUGGUUUUCCCCUGAUAGUGCUAAGGGGGCCUGGAAGUUUGGACUGGGCAGAGCUCAACACAGCGAGGCAAAGUGGCUGUGGCUAGACUGCCUCUCUGGAUUCCUCGUCACUCAGCAGGGCAUCUCCGAGAGAAAUGCC, the self-cleavage worked out at 1.46.

As for UACGUAGGUGGUUUUCCCCUGAUAGUGCUAAGGGGGCCUGGAAGUUUGGACUGGGCAGAGCUCAACACAGCGAGGCAAAGUGGCUGUGGCUAGACUGCCUCUCUGGAUUCCUCGUCACUCAGCAGGGCAUCUCAGAGAGAAAUGCC, the self-cleavage amounted to 1.28.

For UACGUAGGUGGUUUUCCCCUGAUAGUGCUAAGGGGGCCUGGAAGUUUGGACUGGGCAGAGCUCAACACAGCGCGGCAAAGUGGCUGUGGCUAGACUGCCUCUCUGGAUUCCUUGUCACUCAGCAGGGCAUCUCUGAGAGAAAUGCC, the self-cleavage was 1.85.

On to UACGUAGGUGGUUUUCCCCUGAUAGUGCUAAGGGGGCCUGGAAGUUUGGACUGGGCAGAGCUCAACACAGCGCGGCGAAGUGGCUGUGGCUAGACUGCCUCUCUGGAUUCCUCGUCACUCAGCAGGGCAUCUCUGAGAGAAAUGCC, for which the self-cleavage was 2.78.
